The values below come from the DeepSol protein solubility set.

This data set can be described thus: soluble on expression in E. coli; label from the status in PepcDB or PDB records.
Regarding “MPCVQAQYGSSPQGASPASQSYSYHSSGEYSSDFLTPEFVKFSMDLTNTEITATTSLPSFSTFMDNYSTGYDVKPPCLYQMPLSGQQSSIKVEDIQMHNYQQHSHLPPQSEEMMPHSGSVYYKPSSPPTPTTPGFQVQHSPMWDDPGSLHNFHQNYVATTHMIEQRKTPVSRLSLFSFKQSPPGTPVSSCQMRFDGPLHVPMNPEPAGSHHVVDGQTFAVPNPIRKPASMGFPGLQIGHASQLLDTQVPSPPSRGSPSNEGLCAVCGDNAACQHYGVRTCEGCKGFFKRTVQKNAKYVCLANKNCPVDKRRRNRCQYCRFQKCLAVGMVKEVVRTDSLKGRRGRLPSKPKSPQEPSPPSPPVSLISALVRAHVDSNPAMTSLDYSRFQANPDYQMSGDDTQHIQQFYDLLTGSMEIIRGWAEKIPGFADLPKADQDLLFESAFLELFVLRLAYRSNPVEGKLIFCNGVVLHRLQCVRGFGEWIDSIVEFSSNLQNMNIDISAFSCIAALAMVTERHGLKEPKRVEELQNKIVNCLKDHVTFNNGGLNRPNYLSKLLGKLPELRTLCTQGLQRIFYLKLEDLVPPPAIIDKLFLDTLPF”, the “soluble on expression in E. coli” value is “soluble”.

As to “MPDDKVPTVPDKGADGSPGSSFKNPEILSSQPSESMQAVYEILIQGNNLKTGLPSIVKSQEDLQTLYSVLYGNSLKAPLIDFSKKAVVIAAAGPFNTGGYSIVPVSAIKTGKIINLVFEVKSPGPKDMVTQAFTRPYVIVSVDAEPDTEIFIEINGDAKNDKLDF”, the “soluble on expression in E. coli” value is “not soluble”. For “MPDGTIDGGHPQRPASPRLRSPLLRLATWNVNSIRTRLDRVLDWLGRADVDVLAMQETKCPDGQFPALPLFELGYDVAHVGFDQWNGVAIASRVGLDDVRVGFDGQPSWSGKPEVAATTEARALGATCGGIRVWSLYVPNGRALDDPHYTYKLDWLAALRDTAEGWLRDDPAAPIALMGDWNIAPTDDDVWSTEFFAGCTHVSEPERKAFNAIVDAQFTDVVRPFTPGPGVYTYWDYTQLRFPKKQGMRIDFILGSPALAARVMDAQIVREERKGKAPSDHAPVLVDLHAG” the value was “not soluble”; for “MPENYTPAAAATGTWTEEEIRHQPRAWIRSLTNIDALRSALNNFLEPLLRKENLRIILTGAGTSAFIGDIIAPWLASHTGKNFSAVPTTDLVTNPMDYLNPAHPLLLISFGRSGNSPESVAAVELANQFVPECYHLPITCNEAGALYQNAINSDNAFALLMPAETHDRGFAMTSSITTMMASCLAVFAPETINSQTFRDVADRCQAILTSLGDFSEGVFGYAPWKRIVYLGSGGLQGAARESALKVLELTAGKLAAFYDSPTGFRHGPKSLVDDETLVVVFVSSHPYTRQYDLDLLAELRRDNQAMRVIAIAAESSDIVAAGPHIILPPSRHFIDVEQAFCFLMYAQTFALMQSLHMGNTPDTPSASGTVNRVVQGVIIHPWQA”, “soluble”. The result for “MPESSRDKGNAAISGNRSVLSIASPTKLNILSSDWSRNQGKVSKNSLKRSSSLNIRNSKRPSLQASANSIYSRPKITIGAPPLIRRDSSFFKDEFDAKKDKATFSAYSSRSYPTIGSESVVSQTSLSQPTTSREVDEQFTVAADRYIPILQGASQNKVDPETLHEALPPPNASPISHLRAQTKIVFKQNVAEACGLDMNKRILQYMPEPPKCSSLRQKSYIMKKRTHYSYQQEQKIPDLIKLRKINTNPERILDAPGFQDDFYLNLLSWSKKNVLAIALDTALYLWNATTGDVSLLTDFENTTICSVTWSDDDCHISIGKEDGNTEIWDVETMSLIRTMRSGLGVRIGSLSWLDTLIATGSRSGEIQINDVRIKQHIVSTWAEHTGEVCGLSYKSDGLQLASGGNDNTVMIWDTRTSLPQFSKKTHTAAVKALSWCPYSPNILASGGGQTDKHIHFWNSITGARVGSINTGSQVSSLHWGQSHTSTNGGMMNKEIVATGGNPENAISVYNYETKFKVAEVVHAHEARICCSQLSPDGTTLATVGGDENLKFYKIFDPRCTGRSREDGLMDGMLGLIGKEGCRTNDKENRSKNSSEIHTRRPSSTSQYLIR” reads “not soluble”; that for “MPFSISGRKGSEMMAKLDELKQKLTAKQIQAAYLLVENELMESNNEEKRTQDEMANELGINRTTLWEWRTKNQDFIAFKSEVADSFLAEKREQVYSKLMQLILGPQPSVKAMQLYMQRFGLLTDKKVIEGDLGNATRTNAEIEEQLQKLKKLTGE”, “soluble”.
